Data: paper PMC3510509, “Binding of two DNA molecules by type II topoisomerases for decatenation” (Nucleic Acids Research, 2012)

Biological target: T1, Mycobacterium smegmatis DNA gyrase subunit A (GyrA) (M. smegmatis, UniProt P48354 1-842)
T1 construct: DNA gyrase subunit A, Mycobacterium smegmatis; also called MsGyrA; M. smegmatis GyrA
Assay: cross-linking; glutaraldehyde; gyrase subunits mixed 1:1 in supercoiling reaction buffer, on ice 30 min, then cross-linked at 37°C for 30 min; products resolved on SDS-PAGE, silver stained
Conditions: both partners purified

binding result: binds
B1: Mycobacterium smegmatis DNA gyrase subunit B (GyrB) (natural protein, M. smegmatis, UniProt A0QNE0 1-675, looked up)
chain: MAAQKNNAPKEYGADSITILEGLEAVRKRPGMYIGSTGERGLHHLIWEVVDNAVDEAMAGFATRVDVKIHADGSVEVRDDGRGIPVEMHATGMPTIDVVMTQLHAGGKFDGETYAVSGGLHGVGVSVVNALSTRLEATVLRDGYEWFQYYDRSVPGKLKQGGETKETGTTIRFWADPEIFETTDYNFETVARRLQEMAFLNKGLTIELTDERVTAEEVVDDVVKDTAEAPKTADEKAAEATGPSKVKHRVFHYPGGLVDYVKHINRTKTPIQQSIIDFDGKGPGHEVEIAMQWNAGYSESVHTFANTINTHEGGTHEEGFRAALTSVVNRYAKDKKLLKDKDPNLTGDDIREGLAAVISVKVAEPQFEGQTKTKLGNTEVKSFVQKICNEQLQHWFEANPAEAKTVVNKAVSSAQARIAARKARELVRRKSATDIGGLPGKLADCRSTDPSKSELYVVEGDSAGGSAKSGRDSMFQAILPLRGKIINVEKARIDRVLKNTEVQSIITALGTGIHDEFDISKLRYHKIVLMADADVDGQHISTLLLTLLFRFMKPLVENGHIFLAQPPLYKLKWQRSEPEFAYSDRERDGLLEAGRAAGKKINVDDGIQRYKGLGEMDAKELWETTMDPSVRVLRQVTLDDAAAADELFSILMGEDVEARRSFITRNAKDVRFLDV
notes: DNA gyrase subunit B, Mycobacterium smegmatis, wild type; also called MsGyrB; M. smegmatis GyrB
